Ends that are not written are not given here.

In publication PMC4831024 (2016) one finds Kd data, which are given here for three molecules.

The assay has as its target Ku70/Ku80ΔC heterodimer (human, UniProt P12956 1-609; P13010 1-590). Briefly: FP.

Chain of Ku70/Ku80ΔC heterodimer (P12956 whole entry, stated change not applied, chain 1 of 2): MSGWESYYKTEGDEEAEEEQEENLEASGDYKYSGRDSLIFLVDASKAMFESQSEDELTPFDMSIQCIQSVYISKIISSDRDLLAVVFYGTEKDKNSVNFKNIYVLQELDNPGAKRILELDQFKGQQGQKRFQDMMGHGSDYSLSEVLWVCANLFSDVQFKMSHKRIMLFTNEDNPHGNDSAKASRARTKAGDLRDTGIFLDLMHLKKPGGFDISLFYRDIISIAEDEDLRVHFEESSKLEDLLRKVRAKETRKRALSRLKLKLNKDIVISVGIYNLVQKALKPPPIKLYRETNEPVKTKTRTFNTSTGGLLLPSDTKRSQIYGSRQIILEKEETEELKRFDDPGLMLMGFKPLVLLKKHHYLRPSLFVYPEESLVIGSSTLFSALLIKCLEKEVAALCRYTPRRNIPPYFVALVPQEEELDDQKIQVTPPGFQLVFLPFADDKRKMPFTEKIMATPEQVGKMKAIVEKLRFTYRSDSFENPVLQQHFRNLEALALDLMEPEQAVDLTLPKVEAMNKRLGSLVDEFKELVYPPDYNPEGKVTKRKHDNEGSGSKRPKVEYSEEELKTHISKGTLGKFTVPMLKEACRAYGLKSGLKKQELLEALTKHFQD
Chain of Ku70/Ku80ΔC heterodimer (P13010 1-590, stated change not applied, chain 2 of 2): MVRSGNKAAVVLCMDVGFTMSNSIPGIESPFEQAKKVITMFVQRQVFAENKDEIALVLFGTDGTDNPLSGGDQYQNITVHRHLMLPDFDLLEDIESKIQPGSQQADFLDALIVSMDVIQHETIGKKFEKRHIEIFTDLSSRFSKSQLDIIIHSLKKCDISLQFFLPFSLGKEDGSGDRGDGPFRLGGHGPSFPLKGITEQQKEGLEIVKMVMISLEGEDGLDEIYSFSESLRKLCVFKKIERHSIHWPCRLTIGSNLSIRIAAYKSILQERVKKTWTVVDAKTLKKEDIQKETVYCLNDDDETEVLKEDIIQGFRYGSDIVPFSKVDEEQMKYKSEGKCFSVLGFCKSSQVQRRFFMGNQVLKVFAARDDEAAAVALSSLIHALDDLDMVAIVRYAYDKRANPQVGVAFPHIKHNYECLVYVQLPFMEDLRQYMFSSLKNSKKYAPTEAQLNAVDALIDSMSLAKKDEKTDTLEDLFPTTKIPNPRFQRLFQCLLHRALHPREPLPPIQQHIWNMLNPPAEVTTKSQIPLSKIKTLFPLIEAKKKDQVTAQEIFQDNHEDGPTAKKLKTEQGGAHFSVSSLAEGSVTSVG

What is called Kd is the equilibrium constant for the complex coming apart. A high value points to lower affinity. The molecule Fluorescein-GGYGSSAERKRRLPVWFAKG [fluorescein-labelled WRN-cA peptide (C-terminal KBM of WRN)] returned a dissociation constant (Kd) of 790 nM.
Under Fluorescein-GGYGAQQRKCPEWMNVQN [fluorescein-labelled WRN-nA peptide (N-terminal KBM of WRN)] stands 1170 nM; under Fluorescein-GGYGSSAERKRRLPVWFAKGSDTSKKLMDKTKRGGLFS [fluorescein-labelled WRN-cAX peptide (C-terminal KBM plus XLF-like motif of WRN)], 720 nM.
